Results reported in patent US20250277023A1.

Target: CHO-PD-L1 (UniProt Q9NZQ7)
Assay: FACS binding; Fig. 23

CHO-PD-L1, sequence (Q9NZQ7 19-290): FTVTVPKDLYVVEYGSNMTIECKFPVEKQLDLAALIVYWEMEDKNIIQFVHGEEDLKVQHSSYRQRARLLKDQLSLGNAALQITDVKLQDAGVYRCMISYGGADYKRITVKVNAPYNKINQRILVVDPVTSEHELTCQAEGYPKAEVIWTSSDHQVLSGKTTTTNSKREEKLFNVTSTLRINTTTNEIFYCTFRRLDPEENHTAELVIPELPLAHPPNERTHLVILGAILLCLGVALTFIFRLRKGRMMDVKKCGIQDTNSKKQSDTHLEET

- EC50: 0.494 nM
Substance: R0514(avelumab-mIgG2a)
